Assays:
[1] = biological target: T1, recombinant GST-tagged full length human Gal1 (F7) (human, UniProt P09382 1-135); experiment: Western blot
T1 construct: Produced in E. coli; also called GST-F7; not shown: glutathione S-transferase (GST) tag
Method: Anti-Gal1 monoclonal antibodies were generated and were determined to cross-react well with both human Gal1 and mouse Gal1 (FIG. 1). […] Six recombinant human Gal1 fragments (covering the N-terminal, CBD, post-CBD sequences) named F1, F2, F3, F4, F5, F6 and the full length protein F7 in fusion with GST-tag were produced in E. coli (FIG. 2).

[2] = biological target: T2, endogenous human Gal1 (galectin-1) in lysates of the human Hodgkin lymphoma line L428 (human, UniProt P09382 2-135); experiment: Western blot of L428 cell lysate, antibody titration
T2 construct: Endogenous protein in cell lysate, seen as a band of ~14 kDa on Western blot; also called hGal1
Description: (§1) WB analysis of cell lysates derived from human Hodgkin lymphoma line, L428 and murine melanoma line, B16-F10. Lysates were probed with 8A12 at different titration showing a specific band of Gal1 (~14 kDa), 8A12 recognizes endogenous human and murine Gal1 at similar range of titres.

[3] = biological target: T3, endogenous murine Gal1 (galectin-1) in lysates of the murine melanoma line B16-F10 (mouse, UniProt P16045 2-135); experiment: Western blot of B16-F10 cell lysate, antibody titration
T3 construct: Endogenous protein in cell lysate, seen on Western blot; also called mouse Gal1
Description: as §1

[4] = biological target: T4, recombinant human galectin-2 (R&D Systems) (human, UniProt P05162 1-132, limits assumed); experiment: SPR (BIAcore 3000), 8A12 captured via anti-mouse antibody, galectin as analyte
T4 construct: also called Gal2
T4 sequence (looked up): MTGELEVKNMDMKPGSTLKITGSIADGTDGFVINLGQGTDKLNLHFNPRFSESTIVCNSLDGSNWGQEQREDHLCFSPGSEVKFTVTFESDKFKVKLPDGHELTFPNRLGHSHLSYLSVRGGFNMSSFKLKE
Method: (§2) Surface Plasmon Resonance (SPR) analyses (also called Biomolecular Interaction Analysis, BIAcore) were also conducted in order to further define the biophysical properties (e.g., $kon$, $koff$, $koff/kon$ (K_D) of Gal1's interaction with the 8A12 mAb. SPR experiments were performed at 25° C. in the standard BIAcore running buffer HBS-EP on a BIAcore 3000 Instrument (BIAcore). In brief, anti-mouse antibody was first captured on the CM-5 sensor chip ((GE HealthCare). Afterwards, approximately 250 response units (RU) of anti-Gal1 mAb 8A12 were immobilized (with exception of ~350 RU for rmGal1 assay) and followed by various dilutions of recombinant galectin (human galetin-1, 2, 3, 4, 7, 8, 9 or murine galectin-1 (mGal1), from R&D Systems) to assess the binding of galectin 8A12. All data are shown after subtraction from a channel loaded with buffer alone. Data analysis to obtain the binding curves shown and equilibrium dissociation constant (KD) was performed using BIAevaluation 3.1 (BIAcore) by globally fitting the data to a simple 1:1 (Langmuir) binding model.

[5] = biological target: T5, recombinant human galectin-3 (R&D Systems) (human, UniProt P17931 2-250); experiment: as above
T5 construct: also called Gal3
Method: as §2

[6] = biological target: T6, recombinant human galectin-4 (R&D Systems) (human, UniProt P56470 2-323, limits assumed); experiment: as above
T6 construct: also called Gal4
T6 sequence (looked up): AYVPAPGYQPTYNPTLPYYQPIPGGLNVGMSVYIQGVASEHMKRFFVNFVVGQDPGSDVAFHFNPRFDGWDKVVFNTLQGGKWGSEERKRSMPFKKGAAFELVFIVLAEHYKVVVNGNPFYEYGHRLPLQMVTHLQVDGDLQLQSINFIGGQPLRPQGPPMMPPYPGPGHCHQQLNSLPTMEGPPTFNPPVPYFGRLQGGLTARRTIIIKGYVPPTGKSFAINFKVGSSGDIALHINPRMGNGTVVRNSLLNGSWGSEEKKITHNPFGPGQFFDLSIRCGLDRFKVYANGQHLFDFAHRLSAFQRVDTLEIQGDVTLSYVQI
Method: as §2

[7] = biological target: T7, recombinant human galectin-7 (R&D Systems) (human, UniProt P47929 2-136, limits assumed); experiment: as above
T7 construct: also called Gal7
Method: as §2

[8] = biological target: T8, recombinant human galectin-8 (R&D Systems) (human, UniProt O00214 1-317, limits assumed); experiment: as above
T8 construct: also called Gal8
T8 sequence (looked up): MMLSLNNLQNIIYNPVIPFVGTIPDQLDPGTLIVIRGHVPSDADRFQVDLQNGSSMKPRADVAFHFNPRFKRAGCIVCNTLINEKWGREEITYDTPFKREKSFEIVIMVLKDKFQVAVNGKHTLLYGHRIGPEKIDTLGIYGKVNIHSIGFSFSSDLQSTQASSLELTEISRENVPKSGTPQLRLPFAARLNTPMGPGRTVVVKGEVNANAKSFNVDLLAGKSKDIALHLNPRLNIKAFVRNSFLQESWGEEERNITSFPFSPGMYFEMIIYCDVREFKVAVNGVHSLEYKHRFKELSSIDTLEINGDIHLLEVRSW
Method: as §2

[9] = biological target: T9, recombinant human galectin-9 (R&D Systems) (human, UniProt O00182-2 2-323, limits assumed); experiment: as above
T9 construct: also called Gal9
Method: as §2

[10] = biological target: T10, recombinant human galectin-1 (R&D Systems) (human, UniProt P09382 2-135); experiment: SPR (BIAcore 3000, 25 C), 8A12 captured via anti-mouse antibody, galectin as analyte, 1:1 Langmuir fit
T10 construct: Bought from R&D Systems; also called rhGal1; human galetin-1
Method: as §2

[11] = biological target: T11, recombinant murine galectin-1 (R&D Systems) (mouse, UniProt P16045 2-135); experiment: as above
T11 construct: Bought from R&D Systems; also called rmGal1; mGal1
Method: as §2

T2 sequence (P09382 2-135 limits assumed): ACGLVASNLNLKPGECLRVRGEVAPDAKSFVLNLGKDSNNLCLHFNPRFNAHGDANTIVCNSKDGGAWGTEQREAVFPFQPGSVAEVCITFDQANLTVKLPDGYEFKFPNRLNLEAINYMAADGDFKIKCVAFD
T10 sequence (P09382 2-135 limits assumed): as above
T7 sequence (P47929 2-136 limits assumed): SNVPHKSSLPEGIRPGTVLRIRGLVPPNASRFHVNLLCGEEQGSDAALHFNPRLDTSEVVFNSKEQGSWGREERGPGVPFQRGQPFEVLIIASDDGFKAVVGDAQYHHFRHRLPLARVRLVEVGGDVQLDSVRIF
T5 sequence (P17931 2-250 limits assumed): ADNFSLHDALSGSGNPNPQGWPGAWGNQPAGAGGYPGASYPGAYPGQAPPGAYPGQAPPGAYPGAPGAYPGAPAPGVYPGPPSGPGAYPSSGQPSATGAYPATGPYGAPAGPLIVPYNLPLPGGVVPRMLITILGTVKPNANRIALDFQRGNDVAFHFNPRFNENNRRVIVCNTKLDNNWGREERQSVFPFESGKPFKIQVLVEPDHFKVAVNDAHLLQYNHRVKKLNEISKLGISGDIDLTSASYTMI
T3 sequence (P16045 2-135 limits assumed): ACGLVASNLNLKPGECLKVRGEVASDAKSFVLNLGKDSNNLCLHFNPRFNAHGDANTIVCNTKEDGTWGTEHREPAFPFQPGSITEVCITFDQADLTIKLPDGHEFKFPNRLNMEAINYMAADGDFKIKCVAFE
T11 sequence (P16045 2-135 limits assumed): as above
T1 sequence (P09382 whole entry): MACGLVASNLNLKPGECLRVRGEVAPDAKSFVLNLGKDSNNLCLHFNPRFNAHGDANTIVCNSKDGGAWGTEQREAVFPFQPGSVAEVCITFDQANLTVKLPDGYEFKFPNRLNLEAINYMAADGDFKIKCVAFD
T9 sequence (O00182 other isoform, or with tags, fused parts or gaps limits assumed): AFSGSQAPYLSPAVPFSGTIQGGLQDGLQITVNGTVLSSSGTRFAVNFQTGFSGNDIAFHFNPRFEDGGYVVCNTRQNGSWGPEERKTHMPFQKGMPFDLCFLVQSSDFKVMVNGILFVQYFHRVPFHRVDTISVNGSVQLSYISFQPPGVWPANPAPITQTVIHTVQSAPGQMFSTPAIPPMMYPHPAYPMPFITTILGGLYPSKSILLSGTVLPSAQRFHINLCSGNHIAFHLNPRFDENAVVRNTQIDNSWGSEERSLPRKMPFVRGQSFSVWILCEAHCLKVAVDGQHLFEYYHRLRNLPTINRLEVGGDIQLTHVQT

B1: anti-Gal1 monoclonal antibody 8A12.H9.H10 (antibody, V domains shown)
VH: QAYLQQSGAELVRPGASVRMSCKASGYTFTRYNMHWVKQTPRQGLEWIGRIYPGNGDTSYNQKFKGKATLTVDKSSSTAYMQLSSLTSEDSAVYFCTVWDYWGQGTTLTVSS
VL: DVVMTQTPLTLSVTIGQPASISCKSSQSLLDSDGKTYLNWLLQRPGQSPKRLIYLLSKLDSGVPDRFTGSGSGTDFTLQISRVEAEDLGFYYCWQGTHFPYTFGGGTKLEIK
notes: Murine monoclonal antibody from a hybridoma with a kappa light chain; Signal peptide limits are stated in base pairs and were converted to residues; also called 8A12 mAb; 8A12 antibody
Question: Which results are given for B1?
Answer: binding result [1]: binds; binding result [2]: binds; binding result [3]: binds; binding result [4]: no binding; binding result [5]: no binding; binding result [6]: no binding; binding result [7]: no binding; binding result [8]: no binding; binding result [9]: no binding; binding result [10]: binds; binding result [11]: binds

Reference: patent US10519238 (Dana-Farber, dated 2019)
